{"source": "paper PMC3937638", "origin": "cited, not measured here", "target": "His45 (UniProt position 80, RKIGFHVCAAG)", "details": "HA8(AN)-bound Link_TSG6"}
{"substance": "TSG-6 Link module (Link_TSG6; tumor necrosis factor-stimulated gene-6 protein, hyaluronan-binding domain) (Homo sapiens)", "values": [{"measurement": "pKa", "result": 5.7}]}
